Assay results as given in patent US20220016245A1, “CONJUGATE OF BIOTIN-MODIFIED DIMER AND PHTHALOCYANINE DYE” (The University of Tokyo, priority 2018, published 2022).

Key:
[1] = biological target: T1, Recombinant Human CEACAM-5/CD66e Protein, CF (R & D SYSTEMS) (human, UniProt P06731 35-685); assay: SPR, Biacore T200; CEACAM5 immobilized by amine coupling (279 RU), CEA-V2122 as analyte, single-cycle kinetics, bivalent analysis fit (KD = kd1/ka1)
T1 construct: Bought protein, immobilized on the sensor chip by amine coupling
T1 sequence (looked up): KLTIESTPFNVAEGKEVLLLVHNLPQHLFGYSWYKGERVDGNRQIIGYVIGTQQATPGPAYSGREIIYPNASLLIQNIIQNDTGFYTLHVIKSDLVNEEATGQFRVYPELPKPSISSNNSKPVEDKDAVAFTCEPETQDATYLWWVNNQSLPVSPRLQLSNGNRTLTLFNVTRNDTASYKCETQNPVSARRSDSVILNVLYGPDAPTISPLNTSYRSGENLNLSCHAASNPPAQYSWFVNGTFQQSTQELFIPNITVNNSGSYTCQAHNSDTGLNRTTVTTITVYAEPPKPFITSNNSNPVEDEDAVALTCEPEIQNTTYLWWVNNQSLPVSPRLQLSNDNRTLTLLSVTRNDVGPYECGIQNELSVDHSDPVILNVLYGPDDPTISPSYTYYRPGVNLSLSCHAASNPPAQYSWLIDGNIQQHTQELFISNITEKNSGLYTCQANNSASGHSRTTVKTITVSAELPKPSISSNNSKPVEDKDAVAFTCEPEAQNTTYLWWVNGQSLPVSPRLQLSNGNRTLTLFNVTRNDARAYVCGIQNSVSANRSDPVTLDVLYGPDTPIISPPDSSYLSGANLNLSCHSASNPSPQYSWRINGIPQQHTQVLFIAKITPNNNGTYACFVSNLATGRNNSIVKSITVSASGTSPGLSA

CEACAM5 = biological target: T2, CEACAM5 (Homo sapiens, UniProt P06731); assay: cell staining of CEACAM5-expressing cell line using FITC-labeled CEA-V2122; assay type: cell-based
T2 construct: endogenous in cells; host or cells: MKN-45 (CEACAM5-positive); DLD1 (CEACAM5-negative control)
T2 sequence (P06731 35-676): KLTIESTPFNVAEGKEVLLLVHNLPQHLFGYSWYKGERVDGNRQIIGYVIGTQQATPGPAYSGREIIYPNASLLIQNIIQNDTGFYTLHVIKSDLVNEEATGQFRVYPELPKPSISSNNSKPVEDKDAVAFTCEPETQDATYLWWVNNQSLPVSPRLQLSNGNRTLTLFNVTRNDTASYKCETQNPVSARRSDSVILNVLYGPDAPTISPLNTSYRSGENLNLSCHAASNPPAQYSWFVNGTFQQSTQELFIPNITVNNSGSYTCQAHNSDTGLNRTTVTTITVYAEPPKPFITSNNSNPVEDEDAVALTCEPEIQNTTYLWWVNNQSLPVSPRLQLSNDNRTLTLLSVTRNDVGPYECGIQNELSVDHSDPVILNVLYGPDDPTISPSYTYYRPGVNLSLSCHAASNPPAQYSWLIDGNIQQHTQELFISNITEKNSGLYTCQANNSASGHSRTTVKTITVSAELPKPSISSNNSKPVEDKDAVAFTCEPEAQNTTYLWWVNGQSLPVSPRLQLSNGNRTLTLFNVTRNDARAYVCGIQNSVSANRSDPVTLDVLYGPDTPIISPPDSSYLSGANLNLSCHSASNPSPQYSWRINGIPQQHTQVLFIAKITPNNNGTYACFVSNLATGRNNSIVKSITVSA
Procedure: In order to stain a CEACAM5 expression-positive cancer cell line, FITC labeling was carried out on the cell line, using 100 μg of a purified CEA-V2122 protein. Specifically, labeling was carried out using Fluorescein Labeling Kit—NH2 (DOJINDO LABORATORIES) in accordance with the protocol and amount described in the operating manual included with the kit, and the obtained product was defined to be CEA-V2122-FITC. Specific staining of the CEACAM5 expression-positive cancer cell line is as follows. That is, CEACAM5-positive human stomach cancer-derived MKN-45 cells and CEACAM5-negative human colon cancer-derived DLD1 cells were each seeded on a CELLSTAR, μClear, 96-well plate (Greiner) to a cell density of 2.0×10^4 cells/well, and thereafter, the cells were cultured overnight. Subsequently, a culture solution containing 20 nM CEA-V2122-FITC and 1 μM Hoechist was added to the 96-well plate to a concentration of 100 μL/well, and the obtained mixture was then reacted at 4° C. for 30 minutes. Thereafter, each image was taken using In Cell Analyzer 6000 (GE Healthcare Life Sciences).

[2] = biological target: T3, Recombinant Human CEACAM-5/CD66e Protein (Homo sapiens, UniProt P06731); assay: SPR (Biacore T200) affinity of CEA-V2122 for antigen CEACAM5; assay type: binding
T3 construct: purchased R & D SYSTEMS
T3 sequence (P06731 35-676): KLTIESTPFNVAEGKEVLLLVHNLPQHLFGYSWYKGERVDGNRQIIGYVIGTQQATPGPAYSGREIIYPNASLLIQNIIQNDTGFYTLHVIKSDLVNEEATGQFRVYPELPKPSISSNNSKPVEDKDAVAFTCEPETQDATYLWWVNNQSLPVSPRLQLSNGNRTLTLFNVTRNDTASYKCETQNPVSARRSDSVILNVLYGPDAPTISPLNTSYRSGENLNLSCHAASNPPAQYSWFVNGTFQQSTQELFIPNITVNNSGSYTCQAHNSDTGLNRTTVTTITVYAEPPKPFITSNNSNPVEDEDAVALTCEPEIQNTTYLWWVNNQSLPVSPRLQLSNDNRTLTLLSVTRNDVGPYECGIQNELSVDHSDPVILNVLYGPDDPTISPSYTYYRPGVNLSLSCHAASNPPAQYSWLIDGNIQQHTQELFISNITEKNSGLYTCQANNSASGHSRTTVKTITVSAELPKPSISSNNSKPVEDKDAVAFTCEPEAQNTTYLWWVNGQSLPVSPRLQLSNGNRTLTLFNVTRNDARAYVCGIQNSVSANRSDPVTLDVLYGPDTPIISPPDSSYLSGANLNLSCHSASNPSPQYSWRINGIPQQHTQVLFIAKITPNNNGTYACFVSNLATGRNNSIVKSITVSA

[3] = single-cycle kinetics, bivalent analysis mode

B1: CEA-V2122 (scFv)
chain: QVKLEQSGAEVVKPGASVKLSCKASGFNIKDSYMHWLRQGPGQRLEWIGWIDPENGDTEYAPKFQGKATFTTDTSANTAYLGLSSLRPEDTAVYYCNEGTPTGPYYFDYWGQGTLVTVSSGGGGSGGGGSGGGGSENVLTQSPSSMSVSVGDRVNIACSASSSVPYMHWLQQKPGKSPKLLIYLTSNLASGVPSRFSGSGSGTDYSLTISSVQPEDAATYYCQQRSSYPLTFGGGTKLEIKGGGGSGGGGAEAGITGTWSDQLGDTFIVTAGADGALTGTYENAVGGAESRYVLTGRYDSAPATDGSGTALGWTVAWKNNSKNAHSATTWSGQYVGGADAKINTQWLLTSGTTNANAWKSTLVGHDTFTKVKPSAASHHHHHH
notes: Fusion of an anti-CEACAM5 scFv and mutant streptavidin V2122; also called CEA-Cupid; scFv-V2122
- Kd [1]: 1.08 pM

B2: CEA-V2122-FITC: purified CEA-V2122 protein labeled with Fluorescein Labeling Kit—NH2 (conjugate)
chain: QVKLEQSGAEVVKPGASVKLSCKASGFNIKDSYMHWLRQGPGQRLEWIGWIDPENGDTEYAPKFQGKATFTTDTSANTAYLGLSSLRPEDTAVYYCNEGTPTGPYYFDYWGQGTLVTVSSGGGGSGGGGSGGGGSENVLTQSPSSMSVSVGDRVNIACSASSSVPYMHWLQQKPGKSPKLLIYLTSNLASGVPSRFSGSGSGTDYSLTISSVQPEDAATYYCQQRSSYPLTFGGGTKLEIKGGGGSGGGGAEAGITGTWSDQLGDTFIVTAGADGALTGTYENAVGGAESRYVLTGRYDSAPATDGSGTALGWTVAWKNNSKNAHSATTWSGQYVGGADAKINTQWLLTSGTTNANAWKSTLVGHDTFTKVKPSAASHHHHHH
- recognition of CEACAM5 on cells (FIG. 7) (CEACAM5; 20 nM, 4° C. 30 minutes, CEACAM5-positive MKN-45 vs CEACAM5-negative DLD1 cells): specifically recognizes CEACAM5 on the surface of the cell membrane
- localisation of CEACAM5 after binding (FIG. 8) (CEACAM5; time-series images of MKN45 cells): the CEACAM5 stays on the surface of the cell membrane

B3: CEA-V2122: scFv-type anti-CEACAM5 antibody bound with mutant streptavidin V2122 via an amino acid linker, SEQ ID NO: 14 (protein)
chain: QVKLEQSGAEVVKPGASVKLSCKASGFNIKDSYMHWLRQGPGQRLEWIGWIDPENGDTEYAPKFQGKATFTTDTSANTAYLGLSSLRPEDTAVYYCNEGTPTGPYYFDYWGQGTLVTVSSGGGGSGGGGSGGGGSENVLTQSPSSMSVSVGDRVNIACSASSSVPYMHWLQQKPGKSPKLLIYLTSNLASGVPSRFSGSGSGTDYSLTISSVQPEDAATYYCQQRSSYPLTFGGGTKLEIKGGGGSGGGGAEAGITGTWSDQLGDTFIVTAGADGALTGTYENAVGGAESRYVLTGRYDSAPATDGSGTALGWTVAWKNNSKNAHSATTWSGQYVGGADAKINTQWLLTSGTTNANAWKSTLVGHDTFTKVKPSAASHHHHHH
- KD=kd1/ka1 ([2]; bivalent analysis): 1.078E−12
- binding to CEACAM5 (FIG. 5) ([2]; from the KD value in the sensorgram): strongly binds to CEACAM5
- ka1 [2, 3]: 3.208E+5
- kd1 [2, 3]: 3.461E−7
